In patent US20230203172A1:

Target: human IL-4R alpha on cells (TF-1 cells; human peripheral blood mononuclear cells) (human) (UniProt P24394)
Test: cell-based or functional assay

IC50 (ng/ml), inhibition of IL-4-induced TF-1 cell proliferation: 138 ng/mL
Substance: Dupilumab (antibody)
